Columns and labels:
MED24 = target: T1, MED24 (human, UniProt O75448 1-989, limits assumed); assay: IP/MS, LZTR1 wild type-FLAG, U87
T1 sequence (looked up): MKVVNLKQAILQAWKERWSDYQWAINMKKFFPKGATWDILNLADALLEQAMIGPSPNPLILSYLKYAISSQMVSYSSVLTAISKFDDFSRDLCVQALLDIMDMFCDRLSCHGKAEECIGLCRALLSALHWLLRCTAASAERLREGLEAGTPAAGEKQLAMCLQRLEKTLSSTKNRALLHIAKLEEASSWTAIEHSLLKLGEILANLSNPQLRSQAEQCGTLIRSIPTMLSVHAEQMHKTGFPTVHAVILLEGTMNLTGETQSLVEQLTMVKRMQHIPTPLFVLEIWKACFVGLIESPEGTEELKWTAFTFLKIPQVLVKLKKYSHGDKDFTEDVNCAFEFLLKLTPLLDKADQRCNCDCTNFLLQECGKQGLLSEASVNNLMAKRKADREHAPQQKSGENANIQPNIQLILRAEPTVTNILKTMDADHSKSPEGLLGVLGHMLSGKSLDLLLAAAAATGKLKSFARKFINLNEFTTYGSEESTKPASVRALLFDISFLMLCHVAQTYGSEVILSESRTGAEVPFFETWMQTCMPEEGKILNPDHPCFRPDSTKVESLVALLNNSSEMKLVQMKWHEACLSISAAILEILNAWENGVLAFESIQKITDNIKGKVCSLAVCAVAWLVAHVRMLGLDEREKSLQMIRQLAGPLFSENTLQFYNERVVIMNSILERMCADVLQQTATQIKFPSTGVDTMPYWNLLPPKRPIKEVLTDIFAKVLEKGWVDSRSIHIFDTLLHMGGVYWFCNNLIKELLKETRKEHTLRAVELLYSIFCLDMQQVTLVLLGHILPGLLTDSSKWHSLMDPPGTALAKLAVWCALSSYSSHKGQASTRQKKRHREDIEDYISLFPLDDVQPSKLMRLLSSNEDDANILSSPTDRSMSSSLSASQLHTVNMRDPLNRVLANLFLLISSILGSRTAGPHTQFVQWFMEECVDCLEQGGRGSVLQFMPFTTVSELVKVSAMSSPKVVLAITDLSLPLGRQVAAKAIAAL
In short: (§1)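 Extracted peptides in 3% acetonitrile/0.1% formic acid ran on a 50 cm C18 column into an Orbitrap Fusion, with MaxQuant identification and spectral counting.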

DPP9 = DPP9 (human, UniProt Q86TI2 2-863, limits assumed); assay: IP/MS, LZTR1 wild type-FLAG, U87
In short: as §1

Chain of DPP9 (Q86TI2 2-863 limits assumed): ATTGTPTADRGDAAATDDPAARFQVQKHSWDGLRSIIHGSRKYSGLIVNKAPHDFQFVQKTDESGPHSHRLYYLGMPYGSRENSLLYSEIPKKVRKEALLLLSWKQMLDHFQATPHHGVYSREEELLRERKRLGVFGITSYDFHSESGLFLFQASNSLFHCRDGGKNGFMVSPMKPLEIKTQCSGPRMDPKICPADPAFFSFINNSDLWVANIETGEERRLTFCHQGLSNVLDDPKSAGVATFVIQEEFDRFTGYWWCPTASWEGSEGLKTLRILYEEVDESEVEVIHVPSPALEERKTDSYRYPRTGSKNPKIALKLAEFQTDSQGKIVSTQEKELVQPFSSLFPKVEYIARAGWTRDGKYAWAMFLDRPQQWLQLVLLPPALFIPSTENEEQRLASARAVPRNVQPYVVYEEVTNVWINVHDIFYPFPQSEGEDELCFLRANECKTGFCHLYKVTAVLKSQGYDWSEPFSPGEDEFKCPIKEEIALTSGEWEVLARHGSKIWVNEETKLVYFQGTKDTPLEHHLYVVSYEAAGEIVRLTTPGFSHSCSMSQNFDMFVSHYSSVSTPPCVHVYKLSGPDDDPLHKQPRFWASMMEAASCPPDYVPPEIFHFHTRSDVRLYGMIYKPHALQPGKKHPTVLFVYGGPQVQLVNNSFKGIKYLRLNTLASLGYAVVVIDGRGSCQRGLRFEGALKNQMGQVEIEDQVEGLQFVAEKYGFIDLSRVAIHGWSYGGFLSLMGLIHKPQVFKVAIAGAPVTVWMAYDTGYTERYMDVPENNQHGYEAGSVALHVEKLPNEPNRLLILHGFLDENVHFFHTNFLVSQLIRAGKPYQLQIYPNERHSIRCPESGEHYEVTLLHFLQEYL

binding result (MED24): binds
binding result (DPP9): binds
B1: LZTR1-FLAG (other, human, UniProt Q8N653 1-840, looked up)
chain: MAGPGSTGGQIGAAALAGGARSKVAPSVDFDHSCSDSVEYLTLNFGPFETVHRWRRLPPCDEFVGARRSKHTVVAYKDAIYVFGGDNGKTMLNDLLRFDVKDCSWCRAFTTGTPPAPRYHHSAVVYGSSMFVFGGYTGDIYSNSNLKNKNDLFEYKFATGQWTEWKIEGRLPVARSAHGATVYSDKLWIFAGYDGNARLNDMWTIGLQDRELTCWEEVAQSGEIPPSCCNFPVAVCRDKMFVFSGQSGAKITNNLFQFEFKDKTWTRIPTEHLLRGSPPPPQRRYGHTMVAFDRHLYVFGGAADNTLPNELHCYDVDFQTWEVVQPSSDSEVGGAEVPERACASEEVPTLTYEERVGFKKSRDVFGLDFGTTSAKQPTQPASELPSGRLFHAAAVISDAMYIFGGTVDNNIRSGEMYRFQFSCYPKCTLHEDYGRLWESRQFCDVEFVLGEKEECVQGHVAIVTARSRWLRRKITQARERLAQKLEQEAAPVPREAPGVAAGGARPPLLHVAIREAEARPFEVLMQFLYTDKIKYPRKGHVEDVLLIMDVYKLALSFQLCRLEQLCRQYIEASVDLQNVLVVCESAARLQLSQLKEHCLNFVVKESHFNQVIMMKEFERLSSPLIVEIVRRKQQPPPRTPLDQPVDIGTSLIQDMKAYLEGAGAEFCDITLLLDGHPRPAHKAILAARSSYFEAMFRSFMPEDGQVNISIGEMVPSRQAFESMLRYIYYGEVNMPPEDSLYLFAAPYYYGFYNNRLQAYCKQNLEMNVTVQNVLQILEAADKTQALDMKRHCLHIIVHQFTKVSKLPTLRSLSQQLLLDIIDSLASHISDKQCAELGADI
notes: Expressed in HEK 293T, HeLa or U87 cells; used as cell lysate; also called LZTR1 wild type-FLAG; LZTR1 WT; not shown: FLAG tag at the C-terminus

Reference: patent US20250262210A1 (TRUSTEES OF COLUMBIA UNIVERSITY IN THE CITY OF NEW YORK, published 2025)
